For eight molecules, koff results are on record in patent US20250215104A1 (WALDEN BIOSCIENCES, published 2025).

Assay [1] deals with T1, cynomolgus soluble urokinase plasminogen activator receptor (cynomolgus suPAR) (cynomolgus, UniProt Q9GK78 23-303, limits assumed).
T1 construct: also called cynomolgus uPAR; cynoPLAUR-His
The assay can be described thus: off-rate screen of scFv clones (kdis), Octet BLI.

For assay [2], the target named is T2, human soluble urokinase plasminogen activator receptor (hsuPAR) (human, UniProt Q03405 23-303, limits assumed).
T2 construct: also called human suPAR; rhuPAR-His
The assay can be described thus: off-rate screen of scFv clones (kdis), Octet BLI. In general terms: BLI is a label-free optical method that tracks binding on a fibre tip over time.

T1 sequence (Q9GK78 23-303 limits assumed): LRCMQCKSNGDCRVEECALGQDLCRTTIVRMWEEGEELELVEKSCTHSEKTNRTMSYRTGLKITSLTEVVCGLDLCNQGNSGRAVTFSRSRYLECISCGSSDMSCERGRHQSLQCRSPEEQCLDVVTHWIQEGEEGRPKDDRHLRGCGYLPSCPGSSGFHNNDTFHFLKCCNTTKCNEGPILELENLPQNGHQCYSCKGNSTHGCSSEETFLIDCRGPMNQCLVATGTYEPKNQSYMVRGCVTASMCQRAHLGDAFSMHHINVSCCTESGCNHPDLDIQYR
T2 sequence (Q03405 23-303 limits assumed): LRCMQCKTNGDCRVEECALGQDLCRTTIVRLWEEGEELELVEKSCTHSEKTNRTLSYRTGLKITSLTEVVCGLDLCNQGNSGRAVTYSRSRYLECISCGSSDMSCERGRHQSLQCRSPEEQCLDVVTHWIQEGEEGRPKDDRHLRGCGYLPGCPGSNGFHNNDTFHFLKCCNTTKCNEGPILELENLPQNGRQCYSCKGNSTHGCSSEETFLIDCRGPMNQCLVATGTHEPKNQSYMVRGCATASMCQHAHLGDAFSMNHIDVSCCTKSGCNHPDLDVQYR

B1: suPAR_DB04_G05 (scFv, V domains shown)
VH: QVQLVQSGAEVKKPGASVKVSCKASGYNITDYYIHWVRQAPGQGLEWMGWIDPENGSTIYDQKFQGRVTMTRDTSTSTVYMELSSLRSEDTAVYYCARGYDVDWFVYWGQGTLVTVSS
VL: DIQMTQSPSSLSASVGDRVTITCSARSSVSYMYWYQQKPGKAPKLLIYRTSNLQSGVPSRFSGSGSGTDFTLTISSLQPEDFATYYCQQYHSYPPTFGGGTKVEIK
notes: scFv clone from phage display
In general, koff refers to the first-order rate constant of dissociation. Turning to B1, the values for the koff in assay [1] and in assay [2] were 8.25e-05 s⁻¹ and 0.00364 s⁻¹, respectively.

B2: suPAR_DB04_G07 (scFv, V domains shown)
VH: QVQLVQSGAEVKKPGASVKVSCKASGFSFTTYYMHWVRQAPGQGLEWMGWIDPENGNTIYAQKFQGRVTMTRDTSTSTVYMELSSLRSEDTAVYYCARGYDVDWFVYWGQGTLVTVSS
VL: DIQMTQSPSSLSASVGDRVTITCSARSSVSYMYWYQQKPGKAPKLLIYRTSNLASGVPSRFSGSGSGTDFTLTISSLQPEDFATYYCQQYHSYPPTFGGGTKVEIK
notes: scFv clone from phage display
B2: the koff in assay [1] is 5.96e-07 s⁻¹; in assay [2], 0.00424 s⁻¹.

B3: suPAR_DB04_G11 (scFv, V domains shown)
VH: QVQLVQSGAEVKKPGASVKVSCKASGFTFKDYYIHWVRQAPGQGLEWMGWIDPDSGGTNYAQKFQGRVTMTRDTSTSTVYMELSSLRSEDTAVYYCARGYDVDWFVYWGQGTLVTVSS
VL: DIQMTQSPSSLSASVGDRVTITCSARQSVSYMYWYQQKPGKAPKLLIYRTSNLASGVPSRFSGSGSGTDFTLTISSLQPEDFATYYCQQYHSYPPTFGGGTKVEIK
notes: scFv clone from phage display
As to B3, the koff in assay [1] worked out at 0.00021 s⁻¹; in assay [2] it was 0.00327 s⁻¹.

B4: suPAR_DB04_G09 (scFv, V domains shown)
VH: QVQLVQSGAEVKKPGASVKVSCKASGDTSTTYYMHWVRQAPGQGLEWMGWIDHENGNTIYDQKFQGRVTMTRDTSTSTVYMELSSLRSEDTAVYYCARGYDVDWFVYWGQGTLVTVSS
VL: DIQMTQSPSSLSASVGDRVTITCSAKSSVSYMYWYQQKPGKAPKLLIYRTSNLASGVPSRFSGSGSGTDFTLTISSLQPEDFATYYCQQYHSYPPTFGGGTKVEIK
notes: scFv clone from phage display
Turning to B4, the off-rate constant (koff) in assay [1] was found to be 0.000647 s⁻¹; in assay [2], 0.00359 s⁻¹.

B5: suPAR_DB04_G06 (scFv, V domains shown)
VH: QVQLVQSGAEVKKPGASVKVSCKASGDTFTSYYVHWVRQAPGQGLEWMGWIDHENGNTIYDQKFQGRVTMTRDTSTSTVYMELSSLRSEDTAVYYCARGYDVDWFVYWGQGTLVTVSS
VL: DIQMTQSPSSLSASVGDRVTITCSASQSVSYMYWYQQKPGKAPKLLIYRTSNLASGVPSRFSGSGSGTDFTLTISSLQPEDFATYYCQQYHSYPPTFGGGTKVEIK
notes: scFv clone from phage display
With B5, the koff in assay [1] is 0.000208 s⁻¹; in assay [2], 0.0027 s⁻¹.

B6: suPAR_DB04_G12 (scFv, V domains shown)
VH: QVQLVQSGAEVKKPGASVKVSCKASGYTFSDYYMHWVRQAPGQGLEWMGWIDHENGNTSYAQKFQGRVTMTRDTSTSTVYMELSSLRSEDTAVYYCARGYDVDWFVYWGQGTLVTVSS
VL: DIQMTQSPSSLSASVGDRVTITCSARSSVSYMYWYQQKPGKAPKLLIYRTSNLASGVPSRFSGSGSGTDFTLTISSLQPEDFATYYCQQYHSYPPTFGGGTKVEIK
notes: scFv clone from phage display
Take B6: the koff in assay [1] was 8.1e-05 s⁻¹; in assay [2], 0.00528 s⁻¹.

B7: suPAR_DB04_G10 (scFv, V domains shown)
VH: QVQLVQSGAEVKKPGASVKVSCKASGYTFTGYYMHWVRQAPGQGLEWMGWIDHENGNTIYDQKFQGRVTMTRDTSTSTVYMELSSLRSEDTAVYYCARGNDVDWFVYWGQGTLVTVSS
VL: DIQMTQSPSSLSASVGDRVTITCRASSSVSYMYWYQQKPGKAPKLLIYRTSNLASGVPSRFSGSGSGTDFTLTISSLQPEDFATYYCQQYHSYPPTFGGGTKVEIK
notes: scFv clone from phage display
With B7, the off-rate (koff) in assay [1] turned out to be 0.000462 s⁻¹; in assay [2] it was 0.00322 s⁻¹.

B8: suPAR_DB04_G08 (scFv, V domains shown)
VH: QVQLVQSGAEVKKPGASVKVSCKASGHTLTGYYVHWVRQAPGQGLEWMGWIDHENGNTIYDQKFQGRVTMTRDTSTSTVYMELSSLRSEDTAVYYCARGYDVDWFVYWGQGTLVTVSS
VL: DIQMTQSPSSLSASVGDRVTITCSARSSVSYMYWYQQKPGKAPKLLIYRTSNLASGVPSRFSGSGSGTDFTLTISSLQPEDFATYYCQQYHSYPPTFGGGTKVEIK
notes: scFv clone from phage display
For B8, the koff in assay [1] stood at 0.000203 s⁻¹; in assay [2], 0.00317 s⁻¹.
